Experimental findings from ChEMBL document CHEMBL3861952, “Donepezil-like multifunctional agents: Design, synthesis, molecular modeling and biological evaluation” (Eur J Med Chem, 2016) are described below.

Substrate in data set [1]: C#CCN(Cc1ccc2cccc(O)c2n1)C(C#N)CCC1CCN(Cc2ccccc2)CC1
The conditions noted are these: Homo sapiens; HEK293; 50 nM.
Description: Inhibition of human recombinant BuChE expressed in HEK293 cells using S-butyrylthiocholine iodide as substrate assessed as enzyme Vmax at 50 nM preincubated for 30 mins followed by substrate addition measured after 30 mins by Lineweaver-Burk plot analysis

Substrate in data set [2]: C#CCN(Cc1ccc2cccc(O)c2n1)C(C#N)CCC1CCN(Cc2ccccc2)CC1
As to conditions: Homo sapiens; HEK293; 100 nM.

Substrate in data set [3]: C#CCN(Cc1ccc2cccc(O)c2n1)C(C#N)CCC1CCN(Cc2ccccc2)CC1
The conditions noted are these: Homo sapiens; HEK293; 200 nM.

Substrate in data set [4]: C#CCN(Cc1ccc2cccc(O)c2n1)C(C#N)CCC1CCN(Cc2ccccc2)CC1
As to conditions: Homo sapiens; HEK293; 50 nM. This is another data set of the same source.
Description: Inhibition of human recombinant BuChE expressed in HEK293 cells using S-butyrylthiocholine iodide as substrate assessed as enzyme Km at 50 nM preincubated for 30 mins followed by substrate addition measured after 30 mins by Ellman's method

Substrate in data set [5]: C#CCN(Cc1ccc2cccc(O)c2n1)C(C#N)CCC1CCN(Cc2ccccc2)CC1
The conditions noted are these: Homo sapiens; HEK293; 20 nM.

Substrate in data set [6]: C#CCN(Cc1ccc2cccc(O)c2n1)C(C#N)CCC1CCN(Cc2ccccc2)CC1
As to conditions: Homo sapiens; HEK293; 20 nM. The source holds these as a separate data set.

Substrate in data set [7]: C#CCN(Cc1ccc2cccc(O)c2n1)C(C#N)CCC1CCN(Cc2ccccc2)CC1
The conditions noted are these: Homo sapiens; HEK293; 100 nM. The source holds these as a separate data set.

Substrate in data set [8]: C#CCN(Cc1ccc2cccc(O)c2n1)C(C#N)CCC1CCN(Cc2ccccc2)CC1
The conditions noted are these: Homo sapiens; HEK293; 200 nM. This is another data set of the same source.

Substrate in data set [9]: C#CCN(Cc1ccc2cccc(O)c2n1)C(C#N)CCC1CCN(Cc2ccccc2)CC1
As to conditions: Homo sapiens; HEK293; 100 nM. The source holds these as a separate data set.

Substrate in data set [10]: C#CCN(Cc1ccc2cccc(O)c2n1)C(C#N)CCC1CCN(Cc2ccccc2)CC1
As to conditions: Homo sapiens; HEK293; 100 nM. This is another data set of the same source.

Substrate in data set [11]: C#CCN(Cc1ccc2cccc(O)c2n1)C(C#N)CCC1CCN(Cc2ccccc2)CC1
The conditions noted are these: Homo sapiens; HEK293; 50 nM. The source holds these as a separate data set.
Description: Inhibition of human recombinant AChE expressed in HEK293 cells using acetylthiocholine iodide as substrate assessed as enzyme Vmax at 50 nM preincubated for 30 mins followed by substrate addition measured after 30 mins by Lineweaver-Burk plot analysis

Substrate in data set [12]: C#CCN(Cc1ccc2cccc(O)c2n1)C(C#N)CCC1CCN(Cc2ccccc2)CC1
The conditions noted are these: Homo sapiens; HEK293; 20 nM. The source holds these as a separate data set.

Substrate in data set [13]: C#CCN(Cc1ccc2cccc(O)c2n1)C(C#N)CCC1CCN(Cc2ccccc2)CC1
As to conditions: Homo sapiens; HEK293; 50 nM. This is another data set of the same source.
Description: Inhibition of human recombinant AChE expressed in HEK293 cells using acetylthiocholine iodide as substrate assessed as enzyme Km at 50 nM preincubated for 30 mins followed by substrate addition measured after 30 mins by Lineweaver-Burk plot analysis

Substrate in data set [14]: C#CCN(Cc1ccc2cccc(O)c2n1)C(C#N)CCC1CCN(Cc2ccccc2)CC1
The conditions noted are these: Homo sapiens; HEK293; 200 nM. This is another data set of the same source.

Substrate in data set [15]: C#CCN(Cc1ccc2cccc(O)c2n1)C(C#N)CCC1CCN(Cc2ccccc2)CC1
As to conditions: Homo sapiens; HEK293; 200 nM. This is another data set of the same source.

Substrate in data set [16]: C#CCN(Cc1ccc2cccc(O)c2n1)C(C#N)CCC1CCN(Cc2ccccc2)CC1
As to conditions: Homo sapiens; HEK293; 20 nM. The source holds these as a separate data set.

B1: Cholinesterase (Homo sapiens), P06276 (protein)
chain: MHSKVTIICIRFLFWFLLLCMLIGKSHTEDDIIIATKNGKVRGMNLTVFGGTVTAFLGIPYAQPPLGRLRFKKPQSLTKWSDIWNATKYANSCCQNIDQSFPGFHGSEMWNPNTDLSEDCLYLNVWIPAPKPKNATVLIWIYGGGFQTGTSSLHVYDGKFLARVERVIVVSMNYRVGALGFLALPGNPEAPGNMGLFDQQLALQWVQKNIAAFGGNPKSVTLFGESAGAASVSLHLLSPGSHSLFTRAILQSGSFNAPWAVTSLYEARNRTLNLAKLTGCSRENETEIIKCLRNKDPQEILLNEAFVVPYGTPLSVNFGPTVDGDFLTDMPDILLELGQFKKTQILVGVNKDEGTAFLVYGAPGFSKDNNSIITRKEFQEGLKIFFPGVSEFGKESILFHYTDWVDDQRPENYREALGDVVGDYNFICPALEFTKKFSEWGNNAFFYYFEHRSSKLPWPEWMGVMHGYEIEFVFGLPLERRDNYTKAEEILSRSIVKRWANFAKYGNPNETQNNSTSWPVFKSTEQKYLTLNTESTRIMTKLRAQQCRFWTSFFPKVLEMTGNIDEAEWEWKAGFHRWNNYMMDWKNQFNDYTSKKESCVGL
Take B1: the Vmax in data set [1] turned out to be 101 mAU/min; in [3], 83 mAU/min; in [6], 108 mAU/min; in data set [7], 87 mAU/min. In addition, the Km (commonly the substrate concentration at which the rate is half of its maximum) in [2] was found to be 456 µM; in [4], 289 µM; in data set [5], 249 µM; in data set [8], 1240 µM.

B2: Acetylcholinesterase (Homo sapiens), P22303 (protein)
chain: MRPPQCLLHTPSLASPLLLLLLWLLGGGVGAEGREDAELLVTVRGGRLRGIRLKTPGGPVSAFLGIPFAEPPMGPRRFLPPEPKQPWSGVVDATTFQSVCYQYVDTLYPGFEGTEMWNPNRELSEDCLYLNVWTPYPRPTSPTPVLVWIYGGGFYSGASSLDVYDGRFLVQAERTVLVSMNYRVGAFGFLALPGSREAPGNVGLLDQRLALQWVQENVAAFGGDPTSVTLFGESAGAASVGMHLLSPPSRGLFHRAVLQSGAPNGPWATVGMGEARRRATQLAHLVGCPPGGTGGNDTELVACLRTRPAQVLVNHEWHVLPQESVFRFSFVPVVDGDFLSDTPEALINAGDFHGLQVLVGVVKDEGSYFLVYGAPGFSKDNESLISRAEFLAGVRVGVPQVSDLAAEAVVLHYTDWLHPEDPARLREALSDVVGDHNVVCPVAQLAGRLAAQGARVYAYVFEHRASTLSWPLWMGVPHGYEIEFIFGIPLDPSRNYTAEEKIFAQRLMRYWANFARTGDPNEPRDPKAPQWPPYTAGAQQYVSLDLRPLEVRRGLRAQACAFWNRFLPKLLSATDTLDEAERQWKAEFHRWSSYMVHWKNQFDHYSKQDRCSDL
Consider B2, for which the Michaelis constant (Km) in [9] worked out at 955 µM; in [13] it was 622 µM; in [15], 936 µM; in data set [16], 368 µM. Moreover, the Vmax was found to be 10.2 mAU/min in data set [10], 13 mAU/min in [11], 17.7 mAU/min in data set [12] and 7.3 mAU/min in [14].
